This is an account of results in patent US10947270B2, “Targeted prodrug cytosine deaminase fusion carrier and application thereof” (National Yang-Ming University, priority 2015, dated 2021).

The target in data set [1] is T1, integrin αvβ3 receptor (Homo sapiens, UniProt P05106+P06756). The data set can be described thus: ELISA binding assay of yCD series recombinant protein to integrin αvβ3 receptor. Conditions: ELISA. The method, then: FIGS. 3A-3B show the binding affinity and specificity of RGD4C-yCD, yCD, RGD4C-yCD/UPRT and yCD/UPRT proteins to integrin αvβ3. The binding affinities of RGD4C-yCD, yCD, RGD4C-yCD/UPRT and yCD/UPRT proteins to integrin αvβ3 were determined by ELISA assay using horseradish peroxidase (HRP)-tagged anti-His6 antibody (FIG. 3A). The dissociation constant Kd is obtained by prism software with curve fitting method. […] (*compared with untreated RGDfv group, P<0.05)
T1 sequence (P06756 31-889 limits assumed): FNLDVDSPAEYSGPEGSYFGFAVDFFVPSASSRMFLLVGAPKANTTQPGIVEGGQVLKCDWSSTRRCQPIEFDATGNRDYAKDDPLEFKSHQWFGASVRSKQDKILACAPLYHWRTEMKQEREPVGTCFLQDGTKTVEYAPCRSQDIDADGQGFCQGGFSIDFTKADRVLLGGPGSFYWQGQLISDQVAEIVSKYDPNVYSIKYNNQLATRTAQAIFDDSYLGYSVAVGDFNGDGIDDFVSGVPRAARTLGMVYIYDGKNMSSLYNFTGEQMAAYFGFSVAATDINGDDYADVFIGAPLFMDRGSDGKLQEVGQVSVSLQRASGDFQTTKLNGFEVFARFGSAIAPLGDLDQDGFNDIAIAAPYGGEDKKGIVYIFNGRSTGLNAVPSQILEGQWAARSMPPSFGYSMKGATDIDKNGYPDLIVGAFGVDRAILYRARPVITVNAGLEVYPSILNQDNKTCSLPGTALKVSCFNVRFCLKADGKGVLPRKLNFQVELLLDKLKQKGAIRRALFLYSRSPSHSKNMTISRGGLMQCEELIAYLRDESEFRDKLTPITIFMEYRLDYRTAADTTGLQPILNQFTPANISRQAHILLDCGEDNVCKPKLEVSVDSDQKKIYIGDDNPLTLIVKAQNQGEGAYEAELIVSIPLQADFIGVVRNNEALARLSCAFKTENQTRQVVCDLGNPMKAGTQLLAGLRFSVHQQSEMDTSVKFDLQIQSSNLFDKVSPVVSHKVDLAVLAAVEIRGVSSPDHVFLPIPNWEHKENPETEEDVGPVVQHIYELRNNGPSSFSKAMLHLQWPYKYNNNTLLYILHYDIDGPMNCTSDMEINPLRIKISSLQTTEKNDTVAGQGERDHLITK
T1 sequence (P06756 891-1048 partner limits assumed): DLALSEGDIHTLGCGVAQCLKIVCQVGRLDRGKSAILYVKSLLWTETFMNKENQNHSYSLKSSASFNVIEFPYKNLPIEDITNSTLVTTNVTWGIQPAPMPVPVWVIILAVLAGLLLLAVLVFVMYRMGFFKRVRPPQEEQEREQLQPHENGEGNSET
T1 sequence (P05106 27-788): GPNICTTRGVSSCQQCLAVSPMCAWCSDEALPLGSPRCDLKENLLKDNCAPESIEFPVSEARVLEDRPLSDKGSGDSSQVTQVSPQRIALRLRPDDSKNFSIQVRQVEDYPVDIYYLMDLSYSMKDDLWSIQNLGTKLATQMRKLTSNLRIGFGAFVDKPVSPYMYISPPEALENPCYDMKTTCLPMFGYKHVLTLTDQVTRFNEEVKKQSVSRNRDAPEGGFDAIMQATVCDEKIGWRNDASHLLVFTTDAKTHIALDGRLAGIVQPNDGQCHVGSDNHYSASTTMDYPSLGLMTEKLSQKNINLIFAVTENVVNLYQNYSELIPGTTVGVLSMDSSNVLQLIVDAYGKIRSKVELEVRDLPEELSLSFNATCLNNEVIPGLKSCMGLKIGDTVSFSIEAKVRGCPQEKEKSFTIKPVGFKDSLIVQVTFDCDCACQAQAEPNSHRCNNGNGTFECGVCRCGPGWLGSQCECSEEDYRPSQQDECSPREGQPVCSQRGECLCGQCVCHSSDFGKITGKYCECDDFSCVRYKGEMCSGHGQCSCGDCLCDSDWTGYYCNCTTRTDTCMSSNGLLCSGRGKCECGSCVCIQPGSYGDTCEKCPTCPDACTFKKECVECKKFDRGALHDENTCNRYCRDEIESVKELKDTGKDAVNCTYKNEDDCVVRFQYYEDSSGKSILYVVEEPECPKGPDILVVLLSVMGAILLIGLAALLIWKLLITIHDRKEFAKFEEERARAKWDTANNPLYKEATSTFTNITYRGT
The specific binding ability of RGD4C-yCD, yCD, RGD4C-yCD/UPRT and yCD/UPRT recombinant protein to integrin αvβ3 receptor is analyzed by ELISA binding assay, plotted with prism software and made with curve fitting to find the dissociation constant Kd value.
In general terms: ELISA stands for enzyme-linked immunosorbent assay.

Data set [2] relates to HUVEC, U87MG and MCF-7 cells. The data set is described as follows: Specific binding assay of yCD series recombinant protein and cell, statement for the three cells. The class given is cell-based, human. The method, then: FIG. 5A, FIG. 5B, and FIG. 5C are respectively represented HUVEC cells, U87MG cells, MCF-7 cells seeded in 96-well plates for 24 hours, and then RGD4C-yCD, yCD, RGD4C-yCD/UPRT and yCD/UPRT with different concentrations are added for cells binding assay. After reacted with anti-His-HRP antibody and TMB substrate, ELISA reader (OD450 nm) is used to detect the amount of recombinant protein bound to the cells, and the binding curve is drawn. The nonlinear curve of the prism software is used to make a diagram and calculate the dissociation constant (Kd).
The anti-His6-Tag-HRP antibody and TMB show the color reagent to detect the amount of recombinant protein bound to the cell, then the dissociation constant Kd value of the recombinant protein and the integrin αvβ3 receptor is calculated and a binding curve is drawn. […] The cell binding ability of RGD4C-yCD for HUVEC and U87MG are about 7.7 folds and 6.8 folds higher than MCF-7 respectively. The cell binding ability of RGD4C-yCD/UPRT for HUVEC and U87MG are about 6.9 folds and 5.8 folds higher than MCF-7 respectively. […] It is shown that RGD4C-yCD and RGD4C-yCD/UPRT are specially bound with integrin αvβ3 through RGD4C sequence.

The test system of data set [3] is HUVEC and U87MG cells. The data set is described as follows: Fluorescence microscopy of binding and distribution of yCD series fusion proteins. Conditions: 500 nM protein, 4° C., 2 hours. The class given is cell-based, human. The method, then: (FIG. 8A) or 37° C. […] (FIG. 8C) or 37° C. (FIG. 8D) for 2 hours, and then the fluorescent staining is performed for the cells, and the confocal fluorescence microscope is used to observe the distribution of protein in cells. (Green signal: β3 integrin; red signal: anti-His6-tag (also represents the signal of the fusion protein); blue signal: Hoechst 33342 cell nuclear stain) (Calibration scale: 20 μm).
HUVEC and U87MG cells are co-cultured with culture medium containing 500 nM RGD4C-yCD and RGD4C-yCD/UPRT protein at 4° C. and 37° C. for 2 hours, then the cells are stained with fluorescence, and the distribution in the cell is observed by conjugated fluorescence microscopy.

Data set [4] can be described thus: Enzyme kinetic analysis of EcCD series fusion proteins, substrate 5-FC. The class given is biochemical. The text has this: FIGS. 11A-11D show the activity and kinetics analysis of EcCD series fusion protein enzymes, and the EcCD series proteins are combined with 5-FC at different concentrations for reaction. Respectively calculate the 5-FU formation reaction rate shown in FIG. 11A, 5-FC consumption reaction rate shown in FIG. 10B, uracil formation reaction rate shown in FIG. 10C and cytosine consumption reaction rate shown in FIG. 10D, substitute Michaelis-Menten formula, and calculate the base mass (Kcat) and Km value catalyzed by each mol enzyme in unit time.

Data set [5] can be described thus: Relative substrate selectivity of cytosine deaminase enzyme for 5-FC and cytosine (formula 1). The data set is classed as biochemical. Conditions: relative substrate selectivity to 5-FC. From the text:
Evaluation of the relative substrate selectivity of cytosine deaminase enzyme for 5-FC and Cytosine can be expressed by the following formula 1,
The higher the value, the higher the selectivity of the enzyme to the 5-FC substrate.

Data set [6] has as its target T1, integrin αvβ3 receptor. The data set can be described thus: ELISA binding ability of DTPA modified and In-labeled yCD series protein to integrin αvβ3 receptor. Conditions: before and after modification, marking, purification. From the text: The curve and receptor binding ability parameters (see FIG. 19 and Table 14) are fitted by the binding ability of DTPA-modified protein and integrin αvβ3 receptor through the One site-Specific binding formula in the Graph prism program.
Before the protein is labeled by radioisotope, its enzyme function must be determined, and based on the original enzyme function, it should be examined whether it will be affected during the radioactive marking process. The curve and enzyme kinetic parameters of protein are fitted by the Michaelis-Menten formula in the Graph prism program. […] Whether the yCD and RGD4C-yCD protein detected by the same method will be affected under the conditions of DTPA modification, marking and purification. […] After the completion of the radioactive metal mark, it is necessary to add EDTA of 10-fold protein Moire number and react at room temperature for 1 hour to compete for the radioactive metal isotope indium which is not chelated on DTPA. The EDTA in this step also has the chance to chelate the metal zinc ion of the enzyme catalytic center, the enzyme activity is impaired, so it is necessary to analyze the enzyme activity of In-DTPA-yCD and In-RGD4C-yCD protein after competition with EDTA. […]

B1: yCD: yeast cytosine deaminase (yCD) (SEQ ID NO: 1), recombinant protein without target molecule (protein)
chain: MVVTGGMASKWDQKGMDIAYEEAALGYKEGGVPIGGCLINNKDGSVLGRGHNMRFQKGSATLHGEISTLENCGRLEGKVYKDTTLYTTLSPCDMCTGAIIMYGIPRCVVGENVNFKSKGEKYLQTRGHEVVVVDDERCKKIMKQFIDERPQDWFEDIGELEHHHHHH
modifications: yCD
As a reminder, the Km is the concentration of substrate that gives half-maximal velocity. On to B1, for which the “binding to integrin αvβ3” value in data set [1] is “cannot be bound”. The “binding to the three cells” value in data set [2] is recorded as “weak binding”. Also, the “binding and distribution in cells” value in data set [3] is listed as “can not be effectively bound”. Also, in data set [4] (5-FC consumption (Table 5)), the Kcat worked out at 48.5 ± 1.3 s⁻¹ and the Km came to 1000 ± 100 µM. In data set [4] (5-FU generation), the Kcat turned out to be 47.2 ± 0.9 s⁻¹ and the Km stood at 1000 ± 100 µM. Moreover, the “[Kcat/Km(5-FC)]/{[Kcat/Km(cytosine)] + [Kcat/Km(5-FC)]}” value in data set [5] was 0.771. In data set [6], the “binding with integrin αvβ3 receptor” value was “can not be bound”.
